According to patent US5922685:

Assays:
CD4 (mouse) = CD4 (mouse) (UniProt P06332)

depletion of T cell subset in mice (CD4 (mouse))	depletion of T cell subset in mice (CD8 (mouse))	Substance
> 90%		anti-CD4 mAb (clone GK1.5) (antibody)
	> 90%	anti-CD8 mAb (clone 2.43) (antibody)
